Measured values reported in patent EP1644415B1 (Genetics Institute, LLC, dated 2010).
One block for each binder: values may come before it.

B1: human IL-22R extracellular domain-Fc fusion homodimer (Fc fusion)
chain: HAPEDPSDLLQHVKFQSSNFENILTWDSGPEGTPDTVYSIEYKTYGERDWVAKKGCQRITRKSCNLTVETGNLTELYYARVTAVSAGGRSATKMTDRFSSLQHTTLKPPDVTCISKVRSIQMIVHPTPTPIRAGDGHRLTLEDIFHDLFYHLELQVNRTYQMHLGGKQREYEFFGLTPDTEFLGTIMICVPTWAKESAPYMCRVKTLPDRTWTAGSGSGSG
notes: extracellular domain; Used as CHO conditioned medium, not purified; also called IL-22R-Fc; IL-22RECD-Fc; not shown: human IgG1 Fc
B3: human IL-22 with N terminal His/Flag tag (ligand)
chain: GSGHHHHHHGSGDYKDDDDKAPISSHCRLDKSNFQQPYITNRTFMLAKEASLADNNTDVRLIGEKLFHGVSMSERCYLMKQVLNFTLEEVLFPQSDRFQPYMQEVVPFLARLSNRLSTCHIEGDDLHIQRNVQKLKDTVKKLGESGEIKAIGELDLLFMSLRNACI
modifications: biotinylated with EZ-Link Sulfo-NHS-Biotin where used in ELISA (bio-IL-22); not biotinylated in Biacore and cell assays
notes: Made in CHO cells, extensively glycosylated; also called hIL-22; huIL-22
B4: human IL-22 binding protein-Fc fusion (Fc fusion)
chain: TQSTHESLKPQRVQFQSRNFHNILQWQPGRALTGNSSVYFVQYKIYGQRQWKNKEDCWGTQELSCDLTSETSDIQEPYYGRVRAASAGSYSEWSMTPRFTPWWETKIDPPVMNITQVNGSLLVILHAPNLPYRYQKEKNVSIEDYYELLYRVFIINNSLEKEQKVYEGAHRAVEIEALTPHSSYCVVAEIYQPMLDRRSQRSEERCVEIPAGSGSGSG
notes: Fc fusion homodimer, used as CHO conditioned medium; also called IL-22BP-Fc; hIL-22BP-Fc; not shown: human IgG1 Fc

Assays:
[1] = molecular target: B3; assay: ELISA, bio-IL-22 on streptavidin plates, IL-22R-Fc titrated (Figure 6B)
[2] = molecular target: B1; assay: ELISA, IL-10R2-Fc added to captured IL-22R-Fc before bio-IL-22 (Figure 9A)
[3] = molecular target: B1; assay: ELISA, IL-22R-Fc captured on anti-human IgG, bio-IL-22 titrated (Figure 6A)
[4] = molecular target: T1, human IL-22R-Fc/IL-10R2-Fc heterodimer (human, UniProt Q8N6P7 16-228; Q08334 20-220); assay: ELISA, 50 ng/ml total Fc captured on anti-human IgG, bio-IL-22 titrated (Figure 8A)
T1 construct: extracellular domain; Used as conditioned medium of CHO cells co-expressing both fusions; also called IL-22R/IL-10R2-Fc heterodimer; IL-22R-Fc/IL-10R2-Fc complex; not shown: human IgG1 Fc
T1 sequence 1: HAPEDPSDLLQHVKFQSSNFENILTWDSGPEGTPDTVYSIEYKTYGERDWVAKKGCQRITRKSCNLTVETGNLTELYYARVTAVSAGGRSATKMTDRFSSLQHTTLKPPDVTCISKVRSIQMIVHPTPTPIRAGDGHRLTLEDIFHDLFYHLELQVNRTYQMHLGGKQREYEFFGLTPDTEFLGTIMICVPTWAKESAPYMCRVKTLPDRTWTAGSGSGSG
T1 sequence 2: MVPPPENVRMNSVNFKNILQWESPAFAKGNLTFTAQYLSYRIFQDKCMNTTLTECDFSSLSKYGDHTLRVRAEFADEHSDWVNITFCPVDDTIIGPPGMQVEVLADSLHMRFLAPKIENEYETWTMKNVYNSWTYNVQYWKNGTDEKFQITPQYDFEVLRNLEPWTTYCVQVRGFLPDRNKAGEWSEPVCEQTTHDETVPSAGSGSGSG

[5] = molecular target: T1, human IL-22R-Fc/IL-10R2-Fc heterodimer; assay: ELISA, 50 ng/ml total Fc of co-expressing CHO CM captured, bio-IL-22 5 ng/ml, no antibody (Figure 10C)
[6] = molecular target: B4; assay: Biacore, IL-22BP-Fc from conditioned medium captured by anti-human IgG, IL-22 injected, 1:1 model
[7] = molecular target: T1, human IL-22R-Fc/IL-10R2-Fc heterodimer; assay: Biacore, receptor-Fc from conditioned medium captured by anti-human IgG, IL-22 injected, 1:1 model
[8] = molecular target: B1; assay: as above
[9] = molecular target: B3; assay: competition ELISA: IL-22BP-Fc pre-incubated with bio-IL-22 30 ng/ml, binding to captured IL-22R-Fc (Figure 11A)
[10] = molecular target: B3; assay: competition ELISA: IL-22BP-Fc pre-incubated with bio-IL-22 5 ng/ml, binding to captured IL-22R/IL-10R2-Fc heterodimer (Figure 11B)

Binder: B1
- EC50 [1]: 0.006 µg/mL

- binding result [2]: no binding
B2: human IL-10R2 extracellular domain-Fc fusion homodimer (Fc fusion)
chain: MVPPPENVRMNSVNFKNILQWESPAFAKGNLTFTAQYLSYRIFQDKCMNTTLTECDFSSLSKYGDHTLRVRAEFADEHSDWVNITFCPVDDTIIGPPGMQVEVLADSLHMRFLAPKIENEYETWTMKNVYNSWTYNVQYWKNGTDEKFQITPQYDFEVLRNLEPWTTYCVQVRGFLPDRNKAGEWSEPVCEQTTHDETVPSAGSGSGSG
notes: extracellular domain; Used as CHO conditioned medium, not purified; also called IL-10R2-Fc; IL-10R2ECD-Fc; not shown: human IgG1 Fc

Binder: B3
- EC50 [3]: 0.02 µg/mL
- fold less bio-IL-22 needed for a comparable signal than with immobilized IL-22R-Fc homodimer [4]: 8 fold
- ELISA signal (absorbance at 450 nm) [5]: 2.5
- Kd [6]: 3.37 nM
- Kd [7]: 1.48 nM
- Kd [8]: 41 nM

Binder: B4
- IC50 [9]: 4 nM
- IC50 [10]: 2 nM
